Source: PMC11933844, “Autosuppression of MdNAC18.1 endowed by a 61‐bp promoter fragment duplication delays maturity date in apple”

T1: MdNAC72 (UniProt A0A498KB81 69-407)
T1 sequence: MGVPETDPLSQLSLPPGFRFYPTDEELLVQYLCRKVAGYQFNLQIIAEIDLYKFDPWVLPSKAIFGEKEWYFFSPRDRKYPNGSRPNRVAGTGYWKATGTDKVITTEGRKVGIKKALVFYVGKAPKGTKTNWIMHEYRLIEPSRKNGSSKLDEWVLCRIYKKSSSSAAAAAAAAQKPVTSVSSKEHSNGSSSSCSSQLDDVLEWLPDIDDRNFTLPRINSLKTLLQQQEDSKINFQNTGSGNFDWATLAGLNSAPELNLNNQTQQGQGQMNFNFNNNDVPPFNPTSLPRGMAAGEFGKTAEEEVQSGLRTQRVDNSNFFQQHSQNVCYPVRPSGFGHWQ

B1: MdACO1-like promoter probe NACBS1 (dsDNA)
DNA 1: TCAAGTACCATAACTACACGTAACTTGCAAAGTTCC
DNA 2: GGAACTTTGCAAGTTACGTGTAGTTATGGTACTTGA
B2: MdACO1-like promoter probe mutant (dsDNA)
DNA 1: TCAAGTACCATAACAAAAAATAACTTGCAAAGTTCC
DNA 2: GGAACTTTGCAAGTTATTTTTTGTTATGGTACTTGA
B3: MdNAC18.1 P promoter probe mutant (dsDNA)
DNA 1: GACATACAATGTTCTGATTCGTATGAGATAACTTAA
DNA 2: TTAAGTTATCTCATACGAATCAGAACATTGTATGTC
B4: MdMYC2 promoter probe NACBS1 (dsDNA)
DNA 1: TCTGGGATCCTGGTTTCACGGGTTTTCGAGGTTTTC
DNA 2: GAAAACCTCGAAAACCCGTGAAACCAGGATCCCAGA
B5: MdACS1 promoter probe mutant (dsDNA)
DNA 1: GTACACTTATAATAAAAAAACAAGTTTGTAGGTAAT
DNA 2: ATTACCTACAAACTTGTTTTTTTATTATAAGTGTAC
B6: MdACS1 promoter probe NACBS5 (dsDNA)
DNA 1: GTACACTTATAATCCCCACGCAAGTTTGTAGGTAAT
DNA 2: ATTACCTACAAACTTGCGTGGGGATTATAAGTGTAC
B7: MdNAC72 promoter probe NACBS1 (dsDNA)
DNA 1: TATTGACCCACATTTGCACGTAGCCTTGTAAACTTG
DNA 2: CAAGTTTACAAGGCTACGTGCAAATGTGGGTCAATA
B8: MdNAC18.1 P promoter probe (CTAAC) (dsDNA)
DNA 1: GACATACAATGTTCTGATTCGTATTCTAACACTTAA
DNA 2: TTAAGTGTTAGAATACGAATCAGAACATTGTATGTC

Each binder was assayed against T1, MdNAC72 (assay: EMSA; Beyotime Chemiluminescent EMSA Kit GS009; buffer, salt, pH and temperature not stated). Conditions: protein: recombinant; tags: His (pET32A); chain copies: 2; label: 3' biotin; blunt.

Does B1 bind?
Result: binds

What follows are binders tested against MdNAC18.1 (UniProt A0A498K6T8 1-364) in the same assay as above. Conditions: protein: recombinant; tags: His (pET32A); chain copies: 2; blunt.
Chain of MdNAC18.1 (A0A498K6T8 entry or part of it): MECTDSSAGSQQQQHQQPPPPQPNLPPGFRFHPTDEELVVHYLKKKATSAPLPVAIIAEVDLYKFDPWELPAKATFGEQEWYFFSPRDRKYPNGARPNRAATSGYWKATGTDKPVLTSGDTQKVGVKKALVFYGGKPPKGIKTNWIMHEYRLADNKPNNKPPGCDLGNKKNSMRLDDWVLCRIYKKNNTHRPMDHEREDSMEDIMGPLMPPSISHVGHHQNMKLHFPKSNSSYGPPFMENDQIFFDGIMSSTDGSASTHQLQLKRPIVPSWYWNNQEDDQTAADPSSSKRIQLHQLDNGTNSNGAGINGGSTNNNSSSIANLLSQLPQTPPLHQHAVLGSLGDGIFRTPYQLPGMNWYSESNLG

Does B2 bind?
Result: no binding

Does B3 bind?
Result: no binding

Does B4 bind?
Result: binds

Does B5 bind?
Result: no binding

Same assay, conditions: protein: recombinant; tags: His (pET32A); chain copies: 2; label: 3' biotin; blunt

Does B6 bind?
Result: binds

Does B7 bind?
Result: binds

Does B1 bind?
Result: binds

Does B8 bind?
Result: binds
